# US20200138979A1 (REGENTS OF THE UNIVERSITY OF MICHIGAN, published 2020)
# Where no end group is shown, it is not given here.
# Legend:
# [1] = molecular target: T1, recombinant FGFR2-ECD (Met1-Glu377), extracellular domain of FGFR2c (UniProt P21802 22-377, glycosylated); assay: phage display biopanning (4 rounds) against immobilized recombinant FGFR2-ECD; peptide displayed on M13 phage
# T1 construct: range 1-377; Bought construct; also called #10824-H08H-50, Sino Biological
# Description: Peptide selection was performed using a phage display library (New England Biolabs, Ph.D.-12) per manufacturer instructions. This library consists of M13 bacteriophage that expresses ˜10⁹ unique 12-amino acid sequences. 2×10¹¹ pfu consisting of 2×10⁹ unique clones with ˜100 copies each were biopanned against FGFR2-ECD immobilized in a 6-well plate at 4° C. Four rounds of biopanning were performed using a decreasing quantity (100, 80, 60, and 40 μg) of FGFR2-ECD in successive rounds to increase binding specificity. After the 4th round, 50 plaques were randomly selected for DNA preparation and sequence analysis. We used an ABI Automatic DNA Analyzer (Applied Biosystems) with primer 5′-[…] TTA GCG TAA CG-3′ (−96 gIII sequencing primer, New England Biolabs) that corresponds to the pIII gene sequence of the M13 phage.
# [2] = molecular target: FGFR2c (fibroblast growth factor receptor 2, isoform IIIc) stably expressed on QhTERT cells (UniProt P21802); assay: flow cytometry time course, 5 µM peptide on QhTERT cells expressing FGFR2c, first order kinetics fit
# FGFR2c (fibroblast growth factor receptor 2, isoform IIIc) stably expressed on QhTERT cells, sequence (P21802 22-821): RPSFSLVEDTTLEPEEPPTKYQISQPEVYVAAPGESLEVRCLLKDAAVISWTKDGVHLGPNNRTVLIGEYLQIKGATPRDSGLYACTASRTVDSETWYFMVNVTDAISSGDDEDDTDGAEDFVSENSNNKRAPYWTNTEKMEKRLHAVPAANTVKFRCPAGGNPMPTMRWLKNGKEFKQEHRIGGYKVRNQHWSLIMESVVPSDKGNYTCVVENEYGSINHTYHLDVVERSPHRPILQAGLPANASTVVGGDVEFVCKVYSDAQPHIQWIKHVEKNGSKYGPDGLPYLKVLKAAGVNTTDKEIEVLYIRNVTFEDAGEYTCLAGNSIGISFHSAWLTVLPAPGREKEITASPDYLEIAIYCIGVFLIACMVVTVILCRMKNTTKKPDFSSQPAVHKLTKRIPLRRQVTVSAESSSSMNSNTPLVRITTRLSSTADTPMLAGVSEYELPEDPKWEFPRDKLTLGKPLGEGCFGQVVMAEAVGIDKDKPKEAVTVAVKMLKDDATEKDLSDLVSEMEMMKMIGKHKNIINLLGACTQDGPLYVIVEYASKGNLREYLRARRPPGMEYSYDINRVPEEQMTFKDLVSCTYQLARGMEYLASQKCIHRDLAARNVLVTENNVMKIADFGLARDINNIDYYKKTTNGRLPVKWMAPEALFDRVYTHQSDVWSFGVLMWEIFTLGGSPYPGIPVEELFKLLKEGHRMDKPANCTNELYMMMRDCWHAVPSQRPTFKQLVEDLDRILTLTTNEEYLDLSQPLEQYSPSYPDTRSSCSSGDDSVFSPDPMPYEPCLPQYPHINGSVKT
# [3] = molecular target: FGFR2c (fibroblast growth factor receptor 2, isoform IIIc) stably expressed on QhTERT cells (UniProt P21802); assay: flow cytometry time course, 5 µM peptide on QhTERT cells expressing FGFR2c
# [4] = molecular target: FGFR2c (fibroblast growth factor receptor 2, isoform IIIc) stably expressed on QhTERT cells (UniProt P21802); assay: flow cytometry on cells overexpressing FGFR2 (same experiment as kd=68 nM, printed with more digits)
# [5] = molecular target: FGFR2c (fibroblast growth factor receptor 2, isoform IIIc) stably expressed on QhTERT cells (UniProt P21802); assay: flow cytometry, apparent dissociation constant on QhTERT cells expressing FGFR2c, 0-200 nM peptide, 4° C.
# T1 sequence (P21802 22-377 limits assumed): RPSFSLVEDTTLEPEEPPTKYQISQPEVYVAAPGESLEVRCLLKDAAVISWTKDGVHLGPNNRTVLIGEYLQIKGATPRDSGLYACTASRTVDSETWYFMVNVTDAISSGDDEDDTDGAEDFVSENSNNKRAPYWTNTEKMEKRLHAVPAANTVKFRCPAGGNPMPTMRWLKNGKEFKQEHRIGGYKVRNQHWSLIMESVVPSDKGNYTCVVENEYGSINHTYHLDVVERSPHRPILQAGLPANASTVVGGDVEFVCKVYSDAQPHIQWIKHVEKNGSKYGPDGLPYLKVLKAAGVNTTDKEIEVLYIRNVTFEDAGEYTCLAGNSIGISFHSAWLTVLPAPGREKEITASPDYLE
binder,measurement,setting,value
"SRRPASFRTARE (also called unlabeled SRR*; SSR peptide) [SRR* peptide SRRPASFRTARE, unlabeled]",binding result,[1],binds
SRRPASFRTAREGGGSK(Cy5.5)-NH2 [SRR*-Cy5.5 (peptide … with Cy5.5 attached via a C-terminal GGGSK linker)],apparent association time constant k,[2],0.16 min⁻¹
same,time scale for onset of binding,[3],6.2 min
same,Kd,[4],67.9 nM
same,Kd,[5],68 nM
